Data published in doi:10.1101/2020.09.24.310243.
Like-named read-outs stand apart in the source and are kept apart here.

What was measured:
[1] = molecular target: E. coli DNA gyrase A2B2 complex (E. coli) (UniProt P0AES4)
[2] = molecular target: [Alexa488]-QnrB1 (QnrB1-His labelled at the N-terminus with AlexaFluor 488); assay: fluorescence polarisation
[3] = molecular target: [Alexa488]-QnrB1 (QnrB1-His labelled at the N-terminus with AlexaFluor 488); assay: fluorescence polarisation; remark: listed apart in the source
[4] = molecular target: E. coli DNA gyrase subunit B, full-length, untagged (E. coli) (UniProt P0AES6)
[5] = molecular target: E. coli DNA gyrase A2B2 complex (E. coli) (UniProt P0AES4); remark: listed apart in the source
[6] = molecular target: E. coli DNA gyrase A2B2 complex (E. coli) (UniProt P0AES4); remark: listed apart in the source
[7] = molecular target: GyrB 43 kDa domain (GyrB43), N-terminal ATPase/transducer domain of E. coli GyrB (E. coli)

Substance: AlbG with a thrombin-cleavable N-terminal hexahistidine tag (natural protein)
- rescue of gyrase supercoiling from 3.3 μM albicidin by AlbG, EC50 [1]: 1.2 µM

Substance: E. coli DNA gyrase A2B2 complex (from UniProt P0AES4 1-875; P0AES6 1-804)
- Kd [2]: 1.78 µM
- Kd [3]: 80 nM

Substance: E. coli DNA gyrase subunit B, full-length, untagged (from UniProt P0AES6 1-804) (natural protein)
- KdHi (high-affinity site of the two-site fit), with ADPNP [2]: 0.16 µM
- KdHi (high-affinity site of the two-site fit) [3]: 0.06 µM

Substance: GyrB 43 kDa domain (GyrB43), N-terminal ATPase/transducer domain of E. coli GyrB (domain or fragment)
- Kd [2]: 18 µM
- Kd [3]: 1670 nM

Substance: QnrB1 with a C-terminal 6xHis tag (wild type, unlabelled) (natural protein)
- ATPase activity of the full-length GyrB subunit with QnrB1 (not shown) [4]: < 2 fold
- inhibition of gyrase supercoiling by QnrB1 without CFX, IC50 [5]: 11 µM
- ATP hydrolysis rate of 50 nM gyrase A2B2 in the absence of DNA, with 5 μM QnrB1 [6]: 3 fold
- ATPase rate of 4 μM GyrB43 with 5 μM QnrB1 against no QnrB1 [7]: 17 fold
